This is an account of results in article PMC10200313 (ACS chemical biology, 2022).

For the test, the target named is T1, 6E peptide (14-mer peptide derived from UBC6e, with N-terminal triglycine motif) (Homo sapiens, UniProt Q9Y385).
T1 chain: QADQEAKELARQIS
Put plainly: SPR. On the technique in general: SPR reads the build-up and loss of mass on a sensor chip optically.

B1: Nb6E labeled with biotin (Nb6E-biotin) (VHH)
VHH: QVQLQESGGGLVQPGGSLRLSCAASGFVFENSAMAWYRQAPGKERELIAVIGTTFIKLAESVKGRFTISRDNAKSTVYLQMNNLKPEDTAVYYCSKSGAYWGQGTQVTVSS
Turning to B1, the binding result is recorded as “binds”.
